Assay results reported in PMC9946822, “Widely conserved AHL transcription factors are essential for NCR gene expression and nodule development in Medicago”.

Tests used:
Experiment in all cases: EMSA; 0-300 ng protein titration; EMSA as in Chen (ref. 37), 10 ng probe and 200 ng protein (titration 0-300 ng), SYBR Gold stain; binding buffer, pH and temperature not stated; protein eluted in BS/THES (22 mM Tris-HCl pH 7.5, 4.4 mM EDTA, 8.9% sucrose, 62 mM NaCl, 10 mM HEPES, 5 mM CaCl2, 50 mM KCl, 12% glycerol) with 150 mM imidazole
Details in all cases: protein: recombinant; tags: His (pET28a); blunt
MtAHL2 = MtAHL2 (Medicago truncatula, UniProt G7KSI4 1-269)
Sequence of MtAHL2 (G7KSI4 entry or part of it): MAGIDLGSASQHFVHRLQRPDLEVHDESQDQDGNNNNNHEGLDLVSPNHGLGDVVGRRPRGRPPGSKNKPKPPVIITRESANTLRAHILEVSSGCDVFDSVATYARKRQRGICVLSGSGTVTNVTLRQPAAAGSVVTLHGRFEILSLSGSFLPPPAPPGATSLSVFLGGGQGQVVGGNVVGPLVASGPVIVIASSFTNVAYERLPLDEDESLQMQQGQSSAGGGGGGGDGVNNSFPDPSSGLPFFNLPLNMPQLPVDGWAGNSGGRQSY

MtAHL1 = MtAHL1 (Medicago truncatula, UniProt G7JGG2 1-296)
Sequence of MtAHL1 (G7JGG2 entry or part of it): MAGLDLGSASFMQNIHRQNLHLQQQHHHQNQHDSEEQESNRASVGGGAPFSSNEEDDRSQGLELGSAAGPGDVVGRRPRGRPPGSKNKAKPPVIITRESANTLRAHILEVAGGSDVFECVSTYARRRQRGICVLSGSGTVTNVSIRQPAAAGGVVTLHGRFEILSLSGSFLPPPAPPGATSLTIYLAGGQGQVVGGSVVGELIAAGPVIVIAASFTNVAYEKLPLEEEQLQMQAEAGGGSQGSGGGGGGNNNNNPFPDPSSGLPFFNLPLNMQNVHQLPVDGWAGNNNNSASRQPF

GmAHL1 = GmAHL1 (Glycine max, UniProt C6TMY6 1-268)
Sequence of GmAHL1 (C6TMY6 entry or part of it): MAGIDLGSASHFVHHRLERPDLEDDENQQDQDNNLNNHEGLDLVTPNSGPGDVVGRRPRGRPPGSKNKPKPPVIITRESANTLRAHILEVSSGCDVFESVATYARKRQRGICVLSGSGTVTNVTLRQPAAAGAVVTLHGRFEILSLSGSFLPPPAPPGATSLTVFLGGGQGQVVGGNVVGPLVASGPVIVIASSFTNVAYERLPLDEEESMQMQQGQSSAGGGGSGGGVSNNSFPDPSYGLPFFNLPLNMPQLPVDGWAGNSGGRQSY

Measured: binding result

B1: probe H0 (dsDNA)
DNA 1: TTAATAATTATTTTAATTTTCAAAAAGTATTAATTAC
DNA 2: GTAATTAATACTTTTTGAAAATTAAAATAATTATTAA
binds: all assays above
